Article PMC6614842 (Nucleic Acids Research, 2019)
Substitutions are numbered along the chain they refer to. Where two headings read alike, the source gives them in different places.

Legend:
[1] = biological target: Mature full-length TFAM (human mitochondrial transcription factor A, residues 43-246) (human) (UniProt Q00059); assay: AUC
[2] = biological target: Mature full-length TFAM (human mitochondrial transcription factor A, residues 43-246) (human) (UniProt Q00059); assay: SEC-MALLS
[3] = biological target: Mature full-length TFAM (human mitochondrial transcription factor A, residues 43-246) (human) (UniProt Q00059); assay: ITC
[4] = biological target: Mature full-length TFAM (human mitochondrial transcription factor A, residues 43-246) (human) (UniProt Q00059); assay: SEC-MALLS; remark: listed apart in the source
[5] = biological target: Mature full-length TFAM (human mitochondrial transcription factor A, residues 43-246) (human) (UniProt Q00059); assay: AUC; remark: listed apart in the source
native gel or EMSA = biological target: the molecule itself; assay: native gel or EMSA
TFAM WT (mature) [6] = biological target: T1, TFAM WT (mature) (Homo sapiens, UniProt Q00059 43-246); assay: EMSA
T1 sequence: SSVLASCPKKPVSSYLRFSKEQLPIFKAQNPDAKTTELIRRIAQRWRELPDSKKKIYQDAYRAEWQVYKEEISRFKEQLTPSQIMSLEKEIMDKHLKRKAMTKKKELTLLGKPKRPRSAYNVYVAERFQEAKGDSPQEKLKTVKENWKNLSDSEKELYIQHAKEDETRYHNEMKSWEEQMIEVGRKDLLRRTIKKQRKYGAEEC

TFAM WT (mature) [7] = biological target: T1, TFAM WT (mature); assay: X-ray crystallography
[8] = biological target: T2, TFAM-C49A, A488 at C-terminal Cys246 (Homo sapiens, UniProt Q00059 43-246, C49A); assay: FRET
T2 sequence: T1 sequence with C7A

[9] = biological target: T2, TFAM-C49A, A488 at C-terminal Cys246; assay: FRET; remark: listed apart in the source
[10] = biological target: T2, TFAM-C49A, A488 at C-terminal Cys246; assay: FRET; remark: listed apart in the source
[11] = biological target: T2, TFAM-C49A, A488 at C-terminal Cys246; assay: FRET; remark: listed apart in the source

Mature full-length TFAM (human mitochondrial transcription factor A, residues 43-246) (from UniProt Q00059 43-246) (natural protein)
stoichiometry N [1]: 2
stoichiometry N [2]: 2
stoichiometry N [3]: 2
stoichiometry N [4]: 2
stoichiometry N [5]: 2

B1: TFAM C-terminal tail deletion mutant (TFAM-CTΔ26) (domain or fragment, human, UniProt Q00059 43-220, looked up)
chain: SSVLASCPKKPVSSYLRFSKEQLPIFKAQNPDAKTTELIRRIAQRWRELPDSKKKIYQDAYRAEWQVYKEEISRFKEQLTPSQIMSLEKEIMDKHLKRKAMTKKKELTLLGKPKRPRSAYNVYVAERFQEAKGDSPQEKLKTVKENWKNLSDSEKELYIQHAKEDETRYHNEMKSWEE
binding result (native gel or EMSA): binds

B2: Site-X 22 (dsDNA)
DNA 1: TAACAAAAAATTTCCACCAAAC
DNA 2: TTTGGTGGAAATTTTTTGTTAG
Kd (TFAM WT (mature) [6]): 0.0136 ± 0.00289 µM

B3: Site-YBr 22 (dsDNA)
DNA 1: TAACAATTGAATGTCTGCACAG
DNA 2: CTGTGCAGACATTCAATTGTTA
modifications: brominated at thymine positions (positions not given)
binding result (TFAM WT (mature) [7]): binds

B4: Site-X5* 28 (dsDNA)
DNA 1: TATCATAACAAAAAATTTCCACCAAACA
DNA 2: TGTTTGGTGGAAATTTTTTGTTATGATA
binding result [8]: binds

B5: Site-X3* 28 (dsDNA)
DNA 1: TATCATAACAAAAAATTTCCACCAAACA
DNA 2: TGTTTGGTGGAAATTTTTTGTTATGATA
binding result [9]: binds

B6: Site-Y5* 28 (dsDNA)
DNA 1: TAGAGGCTGTGCAGACATTCAATTGTTA
DNA 2: TAACAATTGAATGTCTGCACAGCCTCTA
binding result [10]: binds

B7: Site-Y3* 28 (dsDNA)
DNA 1: TAGAGGCTGTGCAGACATTCAATTGTTA
DNA 2: TAACAATTGAATGTCTGCACAGCCTCTA
binding result [11]: binds
